From the DeepSol protein solubility set

Experiment: soluble on expression in E. coli; label from the status in PepcDB or PDB records

Row | Sequence | soluble on expression in E. coli
1 | MEDYEGKFSPSELKLKGIHTSTTFWTVGMIVQQYKNGHLVIPKIQRGYVWNEEKARRFIMSLLQGFPIPPIFIIELSGKFYVVDGQQRIRTILWFLGEDNELLEKLGPLRVPIKELAENYNEYGVTNLSEAIIKKIIFGNHPKEFNYKYFTKDFRQYFESLSIPVQHISISSGKEYILTDIFLRINQGSVKLSAMELWRVYYGKDIEEYFHKLNELARYTVAKIYEVSNGKISRQKLERFRIDEFILTFDVLINGLITPPNYIPKDAKLGAVIFSQKTTLKKVKIFVLENRRKVFKNNKGELKKFLDYLEREYKEILKMITYVLGEFTFRRPTIGNECQYALIRPSGNDINEAVFLYEVAIFKLLKDNGHSELIYENKDFIKHVILTSLIENDELFSRSTSTFRSVANKLELAKLTYKKIITKEDNITKDNLKRLLYEKFRASRVSNPVCPYCKEPISDISVADLAHIRPLAFGGQTYIHNLTLAHSTCNRRFGVRDISQYINRC | soluble
2 | MIRIDSVTKRYPDGTVAVDRLSLEIPDRSITVLVGPSGCGKTTTLRMINRMVEPSEGTILLDGADITKQPVNTLRRSMGYVIQNAGLFQHRTIVDNIATVPRMLGWGKERARSRARELMERVGLDASLARRYPYQLSGGQQQRVGVARALASDPPVLLMDEPFSAVDPVVRKGLQEELLRIQDELGKTIVFVTHDIDEAIRLGTMVAVMRTGGHLAQFAPPAELLSAPADAFVEDFLGTDRGIRRLSFFPSAGLELLTTPVVAIDSTAEQIAARGTPDVPYLLVTDVDGKALGWSEPKDLTAGKVVPERLLPYGRPFESGKDSLRAALDCAVLSPTGWAVAVDGTGRVVGVVSQETIGEAIRGAHAERRKADLAGLEHHHHHH | not soluble
3 | MKHVKKEKAEKLEKERQRHIGKPLLGGPFSLTTHTGERKTDKDYLGQWLLIYFGFTHCPDVCPEELEKMIQVVDEIDSITTLPDLTPLFISIDPERDTKEAIANYVKEFSPKLVGLTGTREEVDQVARAYRVYYSPGPKDEDEDYIVDHTIIMYLIGPDGEFLDYFGQNKRKGEIAASIATHMRPYRKKS | soluble
4 | MRLCDRDIEAWLDEGRLSINPRPPVERINGATVDVRLGNKFRTFRGHTAAFIDLSGPKDEVSAALDRVMSDEIVLDEGEAFYLHPGELALAVTLESVTLPADLVGWLDGRSSLARLGLMVHVTAHRIDPGWSGCIVLAFYNSGKLPLALRPGMLIGALSFEPLSGPAVRPYNRREDAKYRNQQGAVASRIDKD | soluble
5 | MSLPRGLELLIAQTILQGFDAQYGRFLEVTSGAQQRFEQADWHAVQQAMKNRIHLYDHHVGLVVEQLRCITNGQSTDAAFLLRVKEHYTRLLPITRASRLRRAFLTPCTVGYLTTARLLPSGFLSLALSQSAAFVPFPPAGQRLSPRSRLGISTDARYQRPTAAPAWQNKSRDIHYIIRHLTETLGTDNLAESHLQVANELFYRNKAAWLVGKLITPSGTLPFLLPIHQTDDGELFIDTCLTTTAEASIVFGFARSYFMVYAPLPAALVEWLREILPGKTTAELYMAIGCQKHAKTESYREYLVYLQGCNEQFIEAPGIRGMVMLVFTLPGFDRVFKVIKDRFAPQKEMSAAHVRACYQLVKEHDRVGRMADTQEFENFVLEKRHISPALMELLLQEAAEKITDLGEQIVIRHLYIERRMVPLNIWLEQVEGQQLRDAIEEYGNAIRQLAAANIFPGDMLFKNFGVTRHGRVVFYDYDEICYMTEVNFRDIPPPRYPEDELASEPWYSVSPGDVFPEEFRHWLCADPRIGPLFEEMHADLFRADYWRALQNRIREGHVEDVYAYRRRQRFSVRYGEMLFEGHHHHHH | not soluble
6 | MGICVVIPAFNAALTIEAVVRETLEQGLPLVVVDDGSEDGTADCVRGLPVNLVSHGRNRGKGAALKTGFAWALEYGFSGVITLDSDGQHDPTAITLLAETAKNDGWDILVASRFAQFNQMAGLRRHWNRFGAWCMKKRTGFQIDDSQSGFRYYSARLLRMVSLGKDGYDLEMEILMKAWQAGCTIGSVPVPARVADGRATSHFRPVRDTWNICMTFLRYMLEHHHHHH | not soluble
7 | MRLVIARCSVDYIGRLEAHLPMADRLLMVKADGSVSIHADDRAYKPLNWMTPPCTLTETTHEESETGESIPLWIVENKKGEQLRITIEALHSDMYYDLGEDPGLQKDGVEAHLQELLAEHIETLGDGYSLVRREYPTPIGPVDILCRDDKGGSVAVEIKRRGGIDGVEQLSRYLELLNRDDLLAPVAGVFAAQHIKPQARTLAEDRGIRCVTLDYDSLRGIESTELRLF | not soluble
8 | AHHHHHHGSTIKAPTLNVPGLGVDPLTQRIKEKEKKWKYKIAVLSGKGGVGKSTVAVNLTAALAKMGYFVGILDADIHGPNVAKMFGIGNTDIYAEKFEDGHFEMIPPTVDFMGQVTPIKVMSMGMMVPEDQPIIWRGSLVTKAIKQLLGDVMWGELDFMIIDFPPGTGDEILTVVQSIQLDAAIVVTTPQEVALLDTGKAVNMMKKMEVPYIAVIENMSYLICPHCGNKIDIFGEGGGEKLAEKEGVDFLGKVPIDLKAREASDLGIPIVLYGDTPAAKAFMEIAEKLVNKLKEIKGDGREK | not soluble
9 | MSLYPEKRDGFSRTGKFEVEGRTVQTPAILEVGEIPEWDFGLAPTSLKFISEELYSRLRPINEEVEILTSLHLLSPRQLVQVFEDLSKEGVSPKPLYAASSALPSNVSLLIYLGADLVDNVLAIAKAYSGIYFLGEVEVEISKLRRLPCNCIHCRNRVVDEVENLLETTAKHNTEMLRMEVEKCRRLILNEELRNYVEGKVKLNPEFTAALRLSDSLRNHSTFPRFRKSRCNFSALESSSRFEVRYFFERALECYKPFSDTVLLLPCTARKPYLTSRTHRALRSKVKVNVNEIIISSPLVVPREFELLYPAVNYDTPVTGHWSEEEVSFVAGWLKRFIEKGGFRKVVAHVTGGYRKVVERVEDEVEAEVVYTAEKDVLSDESIERLKQEIESKGKVDLYRRILEHMLSYQFGITWSGKVAGRYPELELLEGKKRLARVDRIYGMLDIYEKIAAYLLEKNIYTVEIGDFEVKGTIFAGGVLRADEKIRPNDVVVFHNSRIFGVGLAAMSGKEMAGSEKGIAINVKRKFSEGHHHHHH | soluble
10 | MDTMSQILKLLEKTDSIEINEFRMDVDELELTIMPTLQNVVQKVVEKQIEAKKEFESQIEFKYPVKDYAGKVNEVKLGGKNRKTVKLGGQTSLYRFEEPQPNAPTVTFDVFDIPMNGLPRPIKENFEDVMHSPGEWAQKAVKEFGADMITLHLIGTDPKVKDKSLKDAAKDLEEVLQAVKVPLVIGGSGNPKKDPLVLEMAAEVADGERCLLASANLDLDYQKIAQAAVKHDHAVLSWAISDINMQKVLNKALMKEGLTANDIVMDPTTCALGYGIEFSIDVMTRTRLSALKGDEILQMPMSSGTTNAWGSREAWMKKDEWGPTKYRGPIWEVVTGLTMMLCGVDIFMMLHPLSVKTLKEIGTTLTYEYKSKESQDISDWINKF | not soluble
11 | GPGSPPSDPRSLHFYNPYHPNSYIRAMLAVSNVVQEYDSDGMFPVYGFGAVAPFTNGTSHFFPLSGNPSNAYLNGMQAVVDTYAGLLPMLQFSGPTNFAPTIRTITDGARRLRGVYTILLILTDGTITDMQDTIDAIVAADDAPLSIVIIGIGRADFSAMVQLDGDGGVLRDRSNRPARRDLVQFVSFSEFEGKNPARLAAAVLLEIPKQVEVWGRIVHATPGHF | not soluble
12 | MKTKTARLFALTALTAATTMPLAAQVSAQEASPREATISVSGEGQAAIAPDMAILSFSVVKQAETAAAALTENSKALAEVLKALKEAAIEDRDLQTSNFSVQPLYKHYEPKDGVYVAPEITGYQVSNGLTVRVRDLKMLGTILDTSVKLGINQGGDITFTNDKPEATVTEARKQAVADAIAKAKTLTEAAGVKLGRVIQISENSQRPMPVPAGMMRASMMKEADSVPIASGENNYSVVVNVTFALDQ | not soluble
13 | ASTLGFKARIHMSHDATDWKINKLLQNGVEVKIYDDNFSNAVAAARVSSQRDPYSYFIDDEGSKLLFAGYATAGERVKKQLSKMQIEVSKEHPLVVYLPAGVGGSPSGVAFGLKLQFADAVIPIFVEPTHMPSVLLGMASGLNHDISVYDIGIDGKTAADGLAVGRPSMIAGKYMKDKLFGIATVSDSDMFAYQGMLKKLENIEVEPSAAVGIRGLIQSKEISEIPDSATHMVWATGGSMVPKNTMHKYEDKAVRIFNTWKS | not soluble
14 | MRYPEHADPVITLTAGPVNAYPEVLRGLGRTVLYDYDPAFQLLYEKVVDKAQKAMRLSNKPVILHGEPVLGLEAAAASLISPDDVVLNLASGVYGKGFGYWAKRYSPHLLEIEVPYNEAIDPQAVADMLKAHPEITVVSVCHHDTPSGTINPIDAIGALVSAHGAYLIVDAVSSFGGMKTHPEDCKADIYVTGPNKCLGAPPGLTMMGVSERAWAKMKANPLAPRASMLSIVDWENAWSRDKPFPFTPSVSEINGLDVALDLYLNEGPEAVWARHALTAKAMRAGVTAMGLSVWAASDSIASPTTTAVRTPDGVDEKALRQAARARYGVVFSSGRGETLGKLTRIGHMGPTAQPIYAIAALTALGGAMNAAGRKLAIGKGIEAALAVIDADA | soluble
15 | KEAIVFSQKTTIDQLHNSLNAASKTGNSNEVLQDPHIGDMYGSVTPLRPQVTRMLGKYAKEKEDMLSLRQVLANAERSYNQLMDRAAN | soluble
16 | GKLHEPYEIIVIDVPSEYQGNVTQLLATRKGLMQSMSTTPGSDWIRMEFRIPARGLIGFRTQFMTETRGTGIANSYSDGMDVWAGEIKGRAHGSLVADRSGQITAYALTQLADRGSFFVEPGTETYEGVV | not soluble
17 | MRTLFLELMEQYVVAKNPKLMLRRSETVVERMLSNWMSICLYQYLKDSAGEPLYKLFKAIKHQVEKGPVDAVQKKAKYTLNDTGLLGDDVEYAPLTVSVIVQDEGIDAIPVKVLNCDTISQVKEKIIDQVYRTQPCSCWPKPDSVVLEWRPGSTAQILSDLDLTSQREGRWKRINTLMHYNVRDGATLILSKVGVSQQPEDSQQDLPGERHALLEEENRVWHLVRPTDEVDEGKSKRGSMKEKERTKAITEIYLTRLLSVKGTLQQFVDNFFQSVLAPGHAVPPAVKYFFDFLDEQAEKHDIRDEDTIHIWKTNSLPLRFWVNILKNPHFIFDVHVHEVVDASLSVIAQTFMDACTRTEHKLSRDSPSNKLLYAKEISTYKKMVEDYYKGIRQMVQVSDQDMNTHLAEISRAHTDSLNTLVALHQLYQYTQKYYDEIINALEEDPAAQKMQLAFRLQQIAAALENKVTDL | not soluble
18 | MSLSVKILALDTATERCSVALLVGNTVYSRSEIAPRDHTKKVLPMVDEVLKEAGVTLQELDALAFGRGPGSFTGVRIGIGIAQGLAFGADLPMIGISTLAAMAQAAYRLQGLTHVASAIDARMEEVYWGRYVRQEDGSWQVAEAECVIAPALLAQTLTQDDLTQDEQIWATAGTGWDAYPALADLPLQLQTSEVLYPDAQDMAYLAQFELAQGNKVSVEQASPVYLRDTVAWKKLPGREEGHHHHHH | soluble
19 | MNLSFKIFDISNTQRSKAKKVQGKKYEIFLNENEHSLITPKVSFKEILRYYYLYPKNAIPSFKLPFFKPDLSGFSTPHITWLGHSSLFISFKEYKILIDPIFNTHASPISFINKAFKNAPVYNINDFNEIFAVIITHSHFDHLDAKSVKALKDKAKFFITPLKVGNYLKSYGVSEKKIIELDWWSGIEFGDLKIMATPAQHSSSRGDGKNKTLWASFVMEFLSVDKRVFFSADGGYFTHFKKIGEYFGSFDLACLESGQFNIAWPYSHSFPEQILKEAKDLNAKAVMPIHWGRFLAGTHAWNEVVKFLYENLDLPLITPKMGEAYEVGAKFKQDFWWKEELEHHHHHH | not soluble
20 | MNETSHEASECPAAVITGGARRIGHSIAVRLHQQGFRVVVHYRHSEGAAQRLVAELNAARAGSAVLCKGDLSLSSSLLDCCEDIIDCSFRAFGRCDVLVNNASAYYPTPLLPGDDTNGAADAKPIDAQVAELFGSNAVAPLFLIRAFARRQGEGGAWRSRNLSVVNLCDAMTDLPLPGFCVYTMAKHALGGLTRAAALELAPRHIRVNAVAPGLSLLPPAMPQETQEEYRRKVPLGQSEASAAQIADAIAFLVSKDAGYITGTTLKVDGGLILARA | soluble
